± gives the uncertainty stated by the source.
B1: Ankyrin-3, residues 4094 to 4171; numbered along this chain, Q12955 (parent)
chain: MAIVADHLGLSWTELARELNFSVDEINQIRVENPNSLISQSFMLLKKWVTRDGKNATTDALTSVLTKINRIDIVTLLE

Variants of: B1
Test: abundance fitness (aPCA) (normalised: wild type 0, dead -1); higher = more abundant; growth selection in yeast, the domain comes from the species named
Details: Homo sapiens

| Variant | abundance fitness |
| --- | --- |
| MAIVADHLGLSWTELSRELNFSVDEINQIRVENPNSLISQSFMLLKKWVTRDGKNATTDALTSVLTKINRIDIVTLLE [A16S] | -0.907 ± 0.14 |
| MAIVADHLGLSWTELLRELNFSVDEINQIRVENPNSLISQSFMLLKKWVTRDGKNATTDALTSVLTKINRIDIVTLLE [A16L] | -0.996 ± 0.15 |
| MAIVADHLGLSWTELQRELNFSVDEINQIRVENPNSLISQSFMLLKKWVTRDGKNATTDALTSVLTKINRIDIVTLLE [A16Q] | -0.749 ± 0.17 |
| MAIVADHLGLSWTELDRELNFSVDEINQIRVENPNSLISQSFMLLKKWVTRDGKNATTDALTSVLTKINRIDIVTLLE [A16D] | -0.813 ± 0.31 |
| MAIVADHLGLSWTELTRELNFSVDEINQIRVENPNSLISQSFMLLKKWVTRDGKNATTDALTSVLTKINRIDIVTLLE [A16T] | -0.841 ± 0.21 |
| MAIVADHLGLSWTELNRELNFSVDEINQIRVENPNSLISQSFMLLKKWVTRDGKNATTDALTSVLTKINRIDIVTLLE [A16N] | -0.793 ± 0.23 |
| MAIVADHLGLSWTELRRELNFSVDEINQIRVENPNSLISQSFMLLKKWVTRDGKNATTDALTSVLTKINRIDIVTLLE [A16R] | -0.893 ± 0.17 |
| MAIVADHLGLSWTELHRELNFSVDEINQIRVENPNSLISQSFMLLKKWVTRDGKNATTDALTSVLTKINRIDIVTLLE [A16H] | -0.601 ± 0.28 |
| MAIVADHLGLSWTELPRELNFSVDEINQIRVENPNSLISQSFMLLKKWVTRDGKNATTDALTSVLTKINRIDIVTLLE [A16P] | -0.895 ± 0.13 |
| MAIVADHLGLSWTELVRELNFSVDEINQIRVENPNSLISQSFMLLKKWVTRDGKNATTDALTSVLTKINRIDIVTLLE [A16V] | -0.531 ± 0.1 |
| MAIVADHLGLSWTELGRELNFSVDEINQIRVENPNSLISQSFMLLKKWVTRDGKNATTDALTSVLTKINRIDIVTLLE [A16G] | -0.257 ± 0.052 |
| MAIVADHLGLSWTELWRELNFSVDEINQIRVENPNSLISQSFMLLKKWVTRDGKNATTDALTSVLTKINRIDIVTLLE [A16W] | -0.79 ± 0.2 |
| MAIVADHLGLSWTQLARELNFSVDEINQIRVENPNSLISQSFMLLKKWVTRDGKNATTDALTSVLTKINRIDIVTLLE [E14Q] | -0.02 ± 0.056 |
| MAIVADHLGLSWTVLARELNFSVDEINQIRVENPNSLISQSFMLLKKWVTRDGKNATTDALTSVLTKINRIDIVTLLE [E14V] | -0.02 ± 0.057 |
| MAIVADHLGLSWTCLARELNFSVDEINQIRVENPNSLISQSFMLLKKWVTRDGKNATTDALTSVLTKINRIDIVTLLE [E14C] | -0.23 ± 0.14 |
| MAIVADHLGLSWTSLARELNFSVDEINQIRVENPNSLISQSFMLLKKWVTRDGKNATTDALTSVLTKINRIDIVTLLE [E14S] | -0.098 ± 0.057 |
| MAIVADHLGLSWTMLARELNFSVDEINQIRVENPNSLISQSFMLLKKWVTRDGKNATTDALTSVLTKINRIDIVTLLE [E14M] | -0.185 ± 0.094 |
| MAIVADHLGLSWTALARELNFSVDEINQIRVENPNSLISQSFMLLKKWVTRDGKNATTDALTSVLTKINRIDIVTLLE [E14A] | -0.082 ± 0.068 |

| Variant | abundance fitness |
| --- | --- |
| MAIVADHLGLSWTKLARELNFSVDEINQIRVENPNSLISQSFMLLKKWVTRDGKNATTDALTSVLTKINRIDIVTLLE [E14K] | -0.347 ± 0.15 |
| MAIVADHLGLSWTTLARELNFSVDEINQIRVENPNSLISQSFMLLKKWVTRDGKNATTDALTSVLTKINRIDIVTLLE [E14T] | -0.198 ± 0.086 |
| MAIVADHLGLSWTGLARELNFSVDEINQIRVENPNSLISQSFMLLKKWVTRDGKNATTDALTSVLTKINRIDIVTLLE [E14G] | -0.426 ± 0.063 |
| MAIVADHLGLSWTWLARELNFSVDEINQIRVENPNSLISQSFMLLKKWVTRDGKNATTDALTSVLTKINRIDIVTLLE [E14W] | -0.469 ± 0.14 |
| MAIVADHLGLSWTPLARELNFSVDEINQIRVENPNSLISQSFMLLKKWVTRDGKNATTDALTSVLTKINRIDIVTLLE [E14P] | -0.583 ± 0.09 |
| MAIVADHLGLSWTLLARELNFSVDEINQIRVENPNSLISQSFMLLKKWVTRDGKNATTDALTSVLTKINRIDIVTLLE [E14L] | -0.306 ± 0.065 |
| MAIVADHLGLSWTRLARELNFSVDEINQIRVENPNSLISQSFMLLKKWVTRDGKNATTDALTSVLTKINRIDIVTLLE [E14R] | -0.289 ± 0.05 |
| MAIVADHLGLSWTYLARELNFSVDEINQIRVENPNSLISQSFMLLKKWVTRDGKNATTDALTSVLTKINRIDIVTLLE [E14Y] | -0.432 ± 0.15 |
| MAIVADHLGLSWTHLARELNFSVDEINQIRVENPNSLISQSFMLLKKWVTRDGKNATTDALTSVLTKINRIDIVTLLE [E14H] | -0.156 ± 0.12 |
| MAIVADHLGLSWTILARELNFSVDEINQIRVENPNSLISQSFMLLKKWVTRDGKNATTDALTSVLTKINRIDIVTLLE [E14I] | -0.278 ± 0.14 |
| MAIVADHLGLSWTDLARELNFSVDEINQIRVENPNSLISQSFMLLKKWVTRDGKNATTDALTSVLTKINRIDIVTLLE [E14D] | -0.074 ± 0.085 |
| MAIVADHLGLSWTEMARELNFSVDEINQIRVENPNSLISQSFMLLKKWVTRDGKNATTDALTSVLTKINRIDIVTLLE [L15M] | -0.073 ± 0.084 |
| MAIVADHLGLSWTEQARELNFSVDEINQIRVENPNSLISQSFMLLKKWVTRDGKNATTDALTSVLTKINRIDIVTLLE [L15Q] | -0.75 ± 0.33 |
| MAIVADHLGLSWTEGARELNFSVDEINQIRVENPNSLISQSFMLLKKWVTRDGKNATTDALTSVLTKINRIDIVTLLE [L15G] | -0.93 ± 0.13 |
| MAIVADHLGLSWTERARELNFSVDEINQIRVENPNSLISQSFMLLKKWVTRDGKNATTDALTSVLTKINRIDIVTLLE [L15R] | -0.869 ± 0.11 |
| MAIVADHLGLSWTEEARELNFSVDEINQIRVENPNSLISQSFMLLKKWVTRDGKNATTDALTSVLTKINRIDIVTLLE [L15E] | -0.766 ± 0.18 |
| MAIVADHLGLSWTEVARELNFSVDEINQIRVENPNSLISQSFMLLKKWVTRDGKNATTDALTSVLTKINRIDIVTLLE [L15V] | -0.039 ± 0.059 |

Reference: the Human Domainome abundance scans (Beltran et al. 2025)
